Measured values published in publication PMC9482650, “Quantitative fragmentomics allow affinity mapping of interactomes” (Nature Communications, 2022).

How the values were obtained:
Test in all cases: holdup assay
Parameters in all cases: key: below the threshold = too weak to quantify, mostly under pKd 3.1 to 4
PDLIM1, O00151 = target: PDLIM1, O00151
TJP1_3, Q07157 = target: TJP1_3, Q07157
DLG4_3, P78352 = target: DLG4_3, P78352
RAPGEF6, Q8TEU7 = target: T1, RAPGEF6, Q8TEU7
T1 sequence (Q8TEU7 525-625, limits assumed, looked up): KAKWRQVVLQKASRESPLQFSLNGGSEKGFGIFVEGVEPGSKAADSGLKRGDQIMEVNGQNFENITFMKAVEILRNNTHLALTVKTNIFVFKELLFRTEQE

SCRIB_3, Q14160 = target: SCRIB_3, Q14160
SCRIB_3, Q14160, sequence (Q14160 999-1103): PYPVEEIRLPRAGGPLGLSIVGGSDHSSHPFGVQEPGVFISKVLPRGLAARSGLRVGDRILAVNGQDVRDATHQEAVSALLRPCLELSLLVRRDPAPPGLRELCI

DLG3_1, Q92796 = target: T2, DLG3_1, Q92796
T2 sequence (Q92796 125-227, limits assumed, looked up): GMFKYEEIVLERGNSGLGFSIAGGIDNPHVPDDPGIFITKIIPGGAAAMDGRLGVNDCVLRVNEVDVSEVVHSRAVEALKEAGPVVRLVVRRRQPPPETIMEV

GRIP2_4, Q9C0E4 = target: GRIP2_4, Q9C0E4
GRIP2_4, Q9C0E4, sequence (Q9C0E4 446-548): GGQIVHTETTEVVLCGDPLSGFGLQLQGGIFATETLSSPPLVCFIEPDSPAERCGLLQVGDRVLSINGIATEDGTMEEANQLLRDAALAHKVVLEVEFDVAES

LAP2, Q96RT1 = target: LAP2, Q96RT1
LAP2, Q96RT1, sequence (Q96RT1 other isoform, or with tags, fused parts or gaps): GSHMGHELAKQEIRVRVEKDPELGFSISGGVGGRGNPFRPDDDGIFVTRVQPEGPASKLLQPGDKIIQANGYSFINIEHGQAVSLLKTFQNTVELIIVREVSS

PDZD2_2, O15018 = target: T3, PDZD2_2, O15018
T3 sequence (O15018 329-429, limits assumed, looked up): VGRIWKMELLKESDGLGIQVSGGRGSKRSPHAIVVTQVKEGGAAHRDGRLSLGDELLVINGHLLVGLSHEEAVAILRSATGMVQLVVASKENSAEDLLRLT

IL16_4, Q14005 = target: IL16_4, Q14005
IL16_4, Q14005, sequence (Q14005 1229-1329): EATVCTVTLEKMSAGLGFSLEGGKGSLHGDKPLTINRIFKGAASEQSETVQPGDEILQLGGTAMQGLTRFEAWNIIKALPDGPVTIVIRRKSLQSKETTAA

FRMPD2_2, Q68DX3 = target: FRMPD2_2, Q68DX3
FRMPD2_2, Q68DX3, sequence (Q68DX3 944-1038): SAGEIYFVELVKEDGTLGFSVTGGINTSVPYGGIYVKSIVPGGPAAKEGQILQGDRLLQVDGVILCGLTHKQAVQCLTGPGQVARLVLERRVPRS

HTRA3, P83110 = target: T4, HTRA3, P83110
T4 sequence (P83110 354-453, limits assumed, looked up): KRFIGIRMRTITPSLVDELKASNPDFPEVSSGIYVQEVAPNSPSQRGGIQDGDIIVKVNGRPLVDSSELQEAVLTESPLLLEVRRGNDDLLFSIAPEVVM

TJP2_1, Q9UDY2 = target: TJP2_1, Q9UDY2
TJP2_1, Q9UDY2, sequence (Q9UDY2 24-128): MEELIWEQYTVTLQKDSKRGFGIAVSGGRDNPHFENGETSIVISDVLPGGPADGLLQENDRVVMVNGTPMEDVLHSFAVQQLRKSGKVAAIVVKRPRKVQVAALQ

GOPC, Q9HD26 = target: GOPC, Q9HD26
NHERF4_2, Q86UT5 = target: NHERF4_2, Q86UT5
NHERF4_2, Q86UT5, sequence (Q86UT5 220-308): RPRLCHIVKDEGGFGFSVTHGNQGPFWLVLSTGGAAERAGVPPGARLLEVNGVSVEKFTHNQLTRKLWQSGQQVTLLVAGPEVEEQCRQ

LNX1_1, Q8TBB1 = target: LNX1_1, Q8TBB1
LNX1_1, Q8TBB1, sequence (Q8TBB1 261-371): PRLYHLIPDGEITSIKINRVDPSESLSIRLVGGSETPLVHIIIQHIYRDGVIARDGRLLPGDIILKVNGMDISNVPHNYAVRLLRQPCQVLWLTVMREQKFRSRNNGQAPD

PCLO, Q9Y6V0 = target: T5, PCLO, Q9Y6V0
T5 sequence (Q9Y6V0 4491-4600, limits assumed, looked up): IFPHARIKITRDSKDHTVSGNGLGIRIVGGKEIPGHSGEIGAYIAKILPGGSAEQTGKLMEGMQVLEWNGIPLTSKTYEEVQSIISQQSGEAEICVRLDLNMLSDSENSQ

SNTG1, Q9NSN8 = target: T6, SNTG1, Q9NSN8
T6 sequence (Q9NSN8 52-150, limits assumed, looked up): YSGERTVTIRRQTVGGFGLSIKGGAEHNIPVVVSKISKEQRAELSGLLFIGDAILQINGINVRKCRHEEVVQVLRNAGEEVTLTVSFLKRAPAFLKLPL

Inadl_9, Q8NI35 = target: Inadl_9, Q8NI35
Inadl_9, Q8NI35, sequence (Q8NI35 1530-1615): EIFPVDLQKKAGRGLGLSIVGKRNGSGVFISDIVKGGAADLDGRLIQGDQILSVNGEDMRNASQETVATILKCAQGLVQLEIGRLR

HTRA2, O43464 = target: HTRA2, O43464
HTRA2, O43464, sequence (O43464 355-458): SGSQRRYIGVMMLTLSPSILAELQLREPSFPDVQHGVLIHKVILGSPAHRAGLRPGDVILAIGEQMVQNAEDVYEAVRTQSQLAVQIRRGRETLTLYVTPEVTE

Inadl_6, Q8NI35 = target: Inadl_6, Q8NI35
Inadl_6, Q8NI35, sequence (Q8NI35 1058-1167): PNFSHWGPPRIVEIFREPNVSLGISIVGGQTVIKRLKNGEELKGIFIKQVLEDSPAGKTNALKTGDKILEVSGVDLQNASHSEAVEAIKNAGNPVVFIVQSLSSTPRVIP

DLG4_2, P78352 = target: DLG4_2, P78352
DLG4_2, P78352, sequence (P78352 155-259): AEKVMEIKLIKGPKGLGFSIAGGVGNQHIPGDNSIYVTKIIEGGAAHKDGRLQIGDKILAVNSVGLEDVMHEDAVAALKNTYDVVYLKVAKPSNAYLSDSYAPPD

TIAM2, Q8IVF5 = target: T7, TIAM2, Q8IVF5
T7 sequence (Q8IVF5 885-986, limits assumed, looked up): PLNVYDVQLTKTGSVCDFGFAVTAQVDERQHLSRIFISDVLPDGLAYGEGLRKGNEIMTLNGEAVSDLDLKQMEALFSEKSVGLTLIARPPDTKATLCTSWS

MAGI2_3, Q86UL8 = target: MAGI2_3, Q86UL8
MAGI2_3, Q86UL8, sequence (Q86UL8 600-682): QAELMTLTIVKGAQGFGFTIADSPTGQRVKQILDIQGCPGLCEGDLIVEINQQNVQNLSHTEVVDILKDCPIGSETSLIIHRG

LIN7B, Q9HAP6 = target: T8, LIN7B, Q9HAP6
T8 sequence (Q9HAP6 88-185, limits assumed, looked up): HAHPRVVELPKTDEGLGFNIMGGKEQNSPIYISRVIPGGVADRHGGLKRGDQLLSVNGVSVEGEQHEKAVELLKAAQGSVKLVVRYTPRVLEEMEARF

FRMPD2_1, Q68DX3 = target: FRMPD2_1, Q68DX3
FRMPD2_1, Q68DX3, sequence (Q68DX3 770-861): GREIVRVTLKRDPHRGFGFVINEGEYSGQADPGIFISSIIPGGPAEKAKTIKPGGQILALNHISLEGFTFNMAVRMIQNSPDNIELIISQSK

TX1BP3, O14907 = target: T9, TX1BP3, O14907
T9 sequence (O14907 10-122, limits assumed, looked up): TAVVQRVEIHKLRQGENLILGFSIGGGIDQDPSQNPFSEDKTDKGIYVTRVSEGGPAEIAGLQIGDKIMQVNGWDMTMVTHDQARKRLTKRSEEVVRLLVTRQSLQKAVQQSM

Inadl_1, Q8NI35 = target: Inadl_1, Q8NI35
Inadl_1, Q8NI35, sequence (Q8NI35 113-229): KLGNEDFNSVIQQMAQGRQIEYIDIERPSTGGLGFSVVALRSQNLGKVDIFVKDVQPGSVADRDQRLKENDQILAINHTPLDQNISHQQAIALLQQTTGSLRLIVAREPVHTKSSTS

[1] = plain residues with an end cap or a label only (N-terminal biotin on a linker: ado-ado)
[2] = plain residues with an end cap or a label only (N-terminal biotin on a linker: ahx)
[3] = plain residues with an end cap or a label only (N-terminal biotin on a linker: (peg)3)

PDLIM1, O00151, sequence (O00151 1-87): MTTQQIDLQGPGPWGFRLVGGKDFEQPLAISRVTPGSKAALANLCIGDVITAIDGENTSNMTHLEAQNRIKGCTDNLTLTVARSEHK
DLG4_3, P78352, sequence (P78352 306-403): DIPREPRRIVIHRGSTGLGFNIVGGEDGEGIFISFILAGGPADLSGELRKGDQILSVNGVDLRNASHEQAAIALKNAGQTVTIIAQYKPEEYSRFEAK
TJP1_3, Q07157, sequence (Q07157 416-512): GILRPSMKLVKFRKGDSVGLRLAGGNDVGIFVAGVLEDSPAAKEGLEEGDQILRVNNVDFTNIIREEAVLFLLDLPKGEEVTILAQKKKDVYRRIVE

AEASVACSLC [PTGIR, P43119]
pKd (PDLIM1, O00151; [1]): below the threshold | pKd (TJP1_3, Q07157; [1]): below the threshold | pKd (DLG4_3, P78352; [1]): below the threshold | pKd (RAPGEF6, Q8TEU7; [1]): below the threshold | pKd (SCRIB_3, Q14160; [1]): below the threshold | pKd (DLG3_1, Q92796; [1]): below the threshold | pKd (GRIP2_4, Q9C0E4; [1]): below the threshold | pKd (LAP2, Q96RT1; [1]): below the threshold | pKd (PDZD2_2, O15018; [1]): 4.29 | pKd (IL16_4, Q14005; [1]): below the threshold | pKd (FRMPD2_2, Q68DX3; [1]): below the threshold | pKd (HTRA3, P83110; [1]): 4.15 | pKd (TJP2_1, Q9UDY2; [1]): below the threshold | pKd (GOPC, Q9HD26; [1]): below the threshold | pKd (NHERF4_2, Q86UT5; [1]): below the threshold | pKd (LNX1_1, Q8TBB1; [1]): below the threshold | pKd (PCLO, Q9Y6V0; [1]): below the threshold | pKd (SNTG1, Q9NSN8; [1]): below the threshold | pKd (Inadl_9, Q8NI35; [1]): below the threshold | pKd (HTRA2, O43464; [1]): 3.78 | pKd (Inadl_6, Q8NI35; [1]): below the threshold | pKd (DLG4_2, P78352; [1]): below the threshold | pKd (TIAM2, Q8IVF5; [1]): 3.75 | pKd (MAGI2_3, Q86UL8; [1]): below the threshold | pKd (LIN7B, Q9HAP6; [1]): below the threshold | pKd (FRMPD2_1, Q68DX3; [1]): below the threshold | pKd (TX1BP3, O14907; [1]): below the threshold | pKd (Inadl_1, Q8NI35; [1]): below the threshold

NTANRRTTPV [CACNG2, Q9Y698]
pKd (PDLIM1, O00151; [1]): below the threshold | pKd (TJP1_3, Q07157; [1]): below the threshold | pKd (DLG4_3, P78352; [1]): 4.69 | pKd (RAPGEF6, Q8TEU7; [1]): below the threshold | pKd (SCRIB_3, Q14160; [1]): 3.92 | pKd (DLG3_1, Q92796; [1]): 3.61 | pKd (GRIP2_4, Q9C0E4; [1]): below the threshold | pKd (LAP2, Q96RT1; [1]): below the threshold | pKd (PDZD2_2, O15018; [1]): 3.66 | pKd (IL16_4, Q14005; [1]): below the threshold | pKd (FRMPD2_2, Q68DX3; [1]): 3.59 | pKd (HTRA3, P83110; [1]): below the threshold | pKd (TJP2_1, Q9UDY2; [1]): 3.9 | pKd (GOPC, Q9HD26; [1]): below the threshold | pKd (NHERF4_2, Q86UT5; [1]): below the threshold | pKd (LNX1_1, Q8TBB1; [1]): below the threshold | pKd (PCLO, Q9Y6V0; [1]): below the threshold | pKd (SNTG1, Q9NSN8; [1]): below the threshold | pKd (Inadl_9, Q8NI35; [1]): below the threshold | pKd (HTRA2, O43464; [1]): below the threshold | pKd (Inadl_6, Q8NI35; [1]): below the threshold | pKd (DLG4_2, P78352; [1]): 4.89 | pKd (TIAM2, Q8IVF5; [1]): below the threshold | pKd (MAGI2_3, Q86UL8; [1]): below the threshold | pKd (LIN7B, Q9HAP6; [1]): below the threshold | pKd (FRMPD2_1, Q68DX3; [1]): below the threshold | pKd (TX1BP3, O14907; [1]): 4.76 | pKd (Inadl_1, Q8NI35; [1]): below the threshold

TQKFRASTAL [FRMPD1, Q5SYB0]
pKd (PDLIM1, O00151; [2]): below the threshold | pKd (TJP1_3, Q07157; [2]): below the threshold | pKd (DLG4_3, P78352; [2]): 3.78 | pKd (RAPGEF6, Q8TEU7; [2]): below the threshold | pKd (SCRIB_3, Q14160; [2]): 4.59 | pKd (DLG3_1, Q92796; [2]): below the threshold | pKd (GRIP2_4, Q9C0E4; [2]): below the threshold | pKd (LAP2, Q96RT1; [2]): below the threshold | pKd (PDZD2_2, O15018; [2]): below the threshold | pKd (IL16_4, Q14005; [2]): below the threshold | pKd (FRMPD2_2, Q68DX3; [2]): below the threshold | pKd (HTRA3, P83110; [2]): below the threshold | pKd (TJP2_1, Q9UDY2; [2]): below the threshold | pKd (GOPC, Q9HD26; [2]): 4.12 | pKd (NHERF4_2, Q86UT5; [2]): below the threshold | pKd (LNX1_1, Q8TBB1; [2]): below the threshold | pKd (PCLO, Q9Y6V0; [2]): below the threshold | pKd (SNTG1, Q9NSN8; [2]): below the threshold | pKd (Inadl_9, Q8NI35; [2]): below the threshold | pKd (HTRA2, O43464; [2]): below the threshold | pKd (Inadl_6, Q8NI35; [2]): below the threshold | pKd (DLG4_2, P78352; [2]): 3.55 | pKd (TIAM2, Q8IVF5; [2]): below the threshold | pKd (MAGI2_3, Q86UL8; [2]): below the threshold | pKd (LIN7B, Q9HAP6; [2]): below the threshold | pKd (FRMPD2_1, Q68DX3; [2]): 3.77 | pKd (TX1BP3, O14907; [2]): 4.17 | pKd (Inadl_1, Q8NI35; [2]): below the threshold

RRRRSQSRESQC [HBV-HBc, P03193]
pKd (PDLIM1, O00151; [3]): below the threshold | pKd (TJP1_3, Q07157; [3]): below the threshold | pKd (DLG4_3, P78352; [3]): 4.58 | pKd (RAPGEF6, Q8TEU7; [3]): below the threshold | pKd (SCRIB_3, Q14160; [3]): 4.03 | pKd (DLG3_1, Q92796; [3]): 3.59 | pKd (GRIP2_4, Q9C0E4; [3]): below the threshold | pKd (LAP2, Q96RT1; [3]): below the threshold | pKd (PDZD2_2, O15018; [3]): 3.88 | pKd (IL16_4, Q14005; [3]): 3.68 | pKd (FRMPD2_2, Q68DX3; [3]): below the threshold | pKd (HTRA3, P83110; [3]): 3.58 | pKd (TJP2_1, Q9UDY2; [3]): below the threshold | pKd (GOPC, Q9HD26; [3]): below the threshold | pKd (NHERF4_2, Q86UT5; [3]): below the threshold | pKd (LNX1_1, Q8TBB1; [3]): below the threshold | pKd (PCLO, Q9Y6V0; [3]): below the threshold | pKd (SNTG1, Q9NSN8; [3]): below the threshold | pKd (Inadl_9, Q8NI35; [3]): below the threshold | pKd (HTRA2, O43464; [3]): below the threshold | pKd (Inadl_6, Q8NI35; [3]): below the threshold | pKd (DLG4_2, P78352; [3]): 4.3 | pKd (TIAM2, Q8IVF5; [3]): 3.86 | pKd (MAGI2_3, Q86UL8; [3]): below the threshold | pKd (LIN7B, Q9HAP6; [3]): 3.7 | pKd (FRMPD2_1, Q68DX3; [3]): below the threshold | pKd (TX1BP3, O14907; [3]): 4.14 | pKd (Inadl_1, Q8NI35; [3]): below the threshold
